Data from US20260209291A1 (KAMINO, published 2026).

T1: activin A (human, UniProt P08476 311-426)
T1 sequence: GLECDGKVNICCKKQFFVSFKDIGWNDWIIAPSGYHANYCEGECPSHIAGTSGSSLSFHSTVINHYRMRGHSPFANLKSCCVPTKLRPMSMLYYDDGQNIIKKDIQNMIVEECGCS

T2: myostatin (Homo sapiens (Human), UniProt O14793 267-375)
T2 sequence: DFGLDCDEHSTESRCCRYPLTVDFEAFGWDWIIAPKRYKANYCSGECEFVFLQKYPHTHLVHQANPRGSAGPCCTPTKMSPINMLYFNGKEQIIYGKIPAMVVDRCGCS

T3: GDF11 (Growth Differentiation Factor 11) (Homo sapiens (Human), UniProt O95390 299-407)
T3 sequence: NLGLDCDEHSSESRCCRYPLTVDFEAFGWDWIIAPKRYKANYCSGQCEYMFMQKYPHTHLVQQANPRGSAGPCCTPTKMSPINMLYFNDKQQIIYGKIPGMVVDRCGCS


Legend:
[1] = biological target: T4, vimentin (endogenous, in HEK293 cells) (human (HEK293 cells), UniProt P08670 2-466); assay: confocal imaging of adherent HEK293 cells after 18 hours with 1 µM ATTO 488 labelled compound; the filing reads the filaments as vimentin; no vimentin co-stain on the sheet
T4 construct: whole, on cells; Intracellular filament protein, inside the cells and not on their surface
T4 sequence (P08670 2-466): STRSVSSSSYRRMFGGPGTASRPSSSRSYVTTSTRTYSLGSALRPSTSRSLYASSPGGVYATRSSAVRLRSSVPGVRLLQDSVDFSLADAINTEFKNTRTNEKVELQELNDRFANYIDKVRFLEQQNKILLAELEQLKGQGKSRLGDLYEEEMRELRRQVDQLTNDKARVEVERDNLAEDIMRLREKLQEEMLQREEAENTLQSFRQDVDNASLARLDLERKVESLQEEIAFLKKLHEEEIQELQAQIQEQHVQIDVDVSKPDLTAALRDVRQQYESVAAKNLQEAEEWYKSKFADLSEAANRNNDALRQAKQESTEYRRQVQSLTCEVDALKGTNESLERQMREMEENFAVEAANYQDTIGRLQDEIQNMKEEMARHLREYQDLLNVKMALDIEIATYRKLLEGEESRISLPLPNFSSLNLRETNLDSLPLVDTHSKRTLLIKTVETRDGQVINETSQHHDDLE
Description: (§1) After labeling, compound concentration was determined using the Pierce Coomassie (Bradford) Protein Assay Kit (Thermo Scientific, #23200).
Briefly, HEK293 cells were seeded on a cover slip glass (Thorlabs, #CG15NH) treated with poly-D-lysine (ThermoFisher, #A3890401) to promote adhesion. Cells were seeded in DMEM (ThermoFisher, #11995073) supplemented with 10% fetal bovine serum (FBS). After 24 hours, cells were washed with PBS and compounds (1 μM) were added in 100% DMEM without FBS. A control sample using 100% DMEM without added compound was also included. After 3 hours and 18 hours of incubation, cells were washed 3 times with PBS. […] Cells were then washed 3 times with PBS and fixed using 4% formalin for 30 minutes. Cover slips were mounted using ProLong Glass Antifade Mountant (ThermoFisher, #P36980). Confocal imaging was conducted using a Zeiss LSM800 laser scanning confocal microscope (Carl Zeiss Microscopy GmbH, Oberkochen, Germany) equipped with 2 GaAsP and one Airyscan detector and Zen Blue Edition software (Carl Zeiss Microscopy GmbH, version 2.5). Confocal images were taken with the PlanApo x63 Oil NA 1.4 objective. […] Lysotracker Red DND-99 was excited using a 561 nm diode laser at 2.60% (both 3-hour and 18-hour samples) and detected at wavelengths 575-700 nm. For each sample, a Z-stack was recorded with an interval of 0.270 μm (3-hour samples) or 0.170 μm (18-hour samples). […]

[2] = biological target: T5, vimentin (endogenous, in mouse gastrocnemius muscle connective tissue cells) (mouse, UniProt P20152 2-466); assay: confocal imaging of sections of mouse gastrocnemius muscle 18 hours after intramuscular injection of 8 µg ATTO 488 labelled compound; the filing reads the filaments as vimentin; no vimentin co-stain on the sheet
T5 construct: whole, on cells; Intracellular filament protein, inside the cells and not on their surface
T5 sequence (P20152 2-466): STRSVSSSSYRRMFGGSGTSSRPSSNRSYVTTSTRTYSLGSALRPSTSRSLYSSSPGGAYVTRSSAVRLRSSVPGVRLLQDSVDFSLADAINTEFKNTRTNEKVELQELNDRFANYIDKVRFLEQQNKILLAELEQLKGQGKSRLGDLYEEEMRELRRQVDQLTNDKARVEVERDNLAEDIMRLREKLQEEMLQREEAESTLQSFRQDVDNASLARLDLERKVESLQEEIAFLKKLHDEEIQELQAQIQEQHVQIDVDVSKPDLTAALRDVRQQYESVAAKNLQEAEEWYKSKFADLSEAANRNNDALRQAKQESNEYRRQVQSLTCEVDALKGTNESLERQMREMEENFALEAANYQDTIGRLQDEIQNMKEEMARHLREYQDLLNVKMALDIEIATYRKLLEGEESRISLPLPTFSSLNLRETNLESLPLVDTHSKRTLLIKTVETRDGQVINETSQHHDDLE
Description: as §1
Two 12-week-old female BALB/c mice were allocated for injection with either anti-vimentin-nanobody-FSD1 (type 1 compound, n=1) or anti-vimentin-nanobody (n=1). During anaesthesia, the right hind limb was shaved to expose the calf muscles. A single dose of 8 μg, fluorescently labeled compound was administered intramuscularly in a volume of 5 μl in the gastrocnemius muscle. Mice received a subcutaneous injection of pain relief (Carprofen 5 mg/kg) to counter any pain resulting from tension in the muscle. Eighteen hours after injection, the gastrocnemius muscle was dissected and immersion-fixed in 4% formaldehyde. The gastrocnemius muscle was ethanol dehydrated, embedded in paraffin, and sectioned at 4 μm thickness using a microtome. Sections were left unstained and mounted with DAPI containing mountant (#P36962, ProLong Diamond Antifade Mountant with DAPI) on microscope slides. […] DAPI was excited using a 405 nm diode laser at 1.00% and detected at wavelengths […]. For each sample, a Z-stack was recorded with an interval of 0.190 μm. […]

activin A = biological target: T1, activin A; assay: cell-based or functional assay
myostatin = biological target: T2, myostatin; assay: cell-based or functional assay
[3] = biological target: T3, GDF11 (Growth Differentiation Factor 11); assay: cell-based or functional assay
[4] = biological target: TNFα (Tumor Necrosis Factor alpha) (UniProt P01375 77-233); assay: SPR (Biacore 3000, 25 °C): compound captured to about 1,000 RU on a CM5 chip with the mouse antibody capture kit, TNFα injected for 120 s, 300 s dissociation; negative control
TNFα (Tumor Necrosis Factor alpha), sequence (P01375 77-233 limits assumed): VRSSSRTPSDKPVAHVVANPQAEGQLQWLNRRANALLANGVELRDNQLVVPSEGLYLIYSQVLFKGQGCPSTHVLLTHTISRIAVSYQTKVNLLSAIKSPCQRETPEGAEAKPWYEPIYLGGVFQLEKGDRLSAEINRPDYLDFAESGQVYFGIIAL
Description: (§2) Surface plasmon resonance (SPR) experiments were carried out on a Biacore 3000 (Cytiva). A CM5 chip for capture of the compounds was prepared according to the instructions of the mouse antibody capture kit (Cytiva, #BR100838). VGFR(½)-mFc-FSD1, TNFR2-mFc-FSD1, VGFR(½)/FST291-mFc, TNFR2/FST291-mFc, VGFR(½)-hFc (Aflibercept), TNFR2-hFc (Etanercept), and FST315dHBS-mFc (SEQ ID NO: 30, SEQ ID NO: 31) were captured to approximately 1,000 RU (Resonance Units). TNFα (R&D Systems, #210-TA-005,) or VEGF (R&D Systems, #293-VE-010) were then injected for 120 s followed by a 300 s dissociation phase. At the end of each binding cycle, non-covalently attached molecules were removed from both surfaces by a 180 s regeneration with 10 mM glycine, pH 1.7. All proteins were diluted in running buffer ([…], pH 7.5, […], 2 mM CaCl₂) and 0.05% Tween 20). A flow rate of 30 μl/min was used in all steps of the experiments. Binding analysis was performed at 25° C., and data were collected at a rate of 1 Hz. Using the BIAevaluation 4.1.1 software (Cytiva), recorded signals were referenced; the signal from the in-line reference flow cell was subtracted as was the signal from a blank run (0 nM analyte).

[5] = biological target: VEGF (Vascular Endothelial Growth Factor) (UniProt P15692-4 27-191); assay: SPR (Biacore 3000, 25 °C): compound captured to about 1,000 RU on a CM5 chip with the mouse antibody capture kit, VEGF injected for 120 s, 300 s dissociation; negative control
VEGF (Vascular Endothelial Growth Factor), sequence (P15692 other isoform, or with tags, fused parts or gaps limits assumed): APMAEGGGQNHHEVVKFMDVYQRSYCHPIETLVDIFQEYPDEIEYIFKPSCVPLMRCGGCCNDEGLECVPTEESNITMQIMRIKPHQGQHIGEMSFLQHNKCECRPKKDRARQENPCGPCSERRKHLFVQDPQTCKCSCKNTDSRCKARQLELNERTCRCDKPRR
Description: as §2

Row | binding result [1] | binding result [2] | IC50, neutralisation of 1 ng/mL activin A (pSmad2/3 luciferase reporter, HEK293 cells) (activin A) [pM] | IC50, neutralisation of 1 ng/mL myostatin (pSmad2/3 luciferase reporter, HEK293 cells) (myostatin) [pM] | IC50, neutralisation of 1 ng/mL GDF11 (pSmad2/3 luciferase reporter, HEK293 cells) [3] [pM] | binding result [5] | Binder | binding result [4]
1 | binds | binds |  |  |  |  | anti-vimentin-nanobody-FSD1 (VHH, ATTO 488 fluorescent label, sites not stated, also called anti-vimentin-nb-FSD1; type 1 design compound) VHH: QVQLVESGGGLVQSGGSLTLTCAASGFTFSAASMRWVRQVPGKGLEWVATIDGTGANSYYSESAKGRFTISRDNARNTLYLQMNNLKPDDTAVYYCANFGRNYWGKGTQVTVSS | 
2 |  |  | 47 | 225 | 205 | no binding (tested: 25 nM VEGF) | FST315dHBS-mFc (Fc fusion) GNCWLRQAKNGRCQVLYKTELSKEECCSTGRLSTSWTEEDVNDNTLFKWMIFNGGAPNCIPCKETCENVDCGPGSTCVVDQTNNPRCVCAPDCSNITWKGPVCGLDGKTYRNECALLKARCKEQPELEVQYQGRCKKTCRDVFCPGSSTCVVDQTNNAYCVTCNRICPEPASSEQYLCGNDGVTYSSACHLRKATCLLGRSIGLAYEGKCIKAKSCEDIQCTGGKKCLWDFKVGRGRCSLCDELCPDSKSDEPVCASDNATYASECAMKEAACSSGVLLEVKHSGSCNSISEDTEEEEEDEDQDYSFPISSILEWPRGPTIKPCPPCKCPAPNLLGGPSVFIFPPKIKDVLMISLSPIVTCVVVDVSEDDPDVQISWFVNNVEVHTAQTQTHREDYNSTLRVVSALPIQHQDWMSGKEFKCKVNNKDLPAPIERTISKPKGSVRAPQVYVLPPPEEEMTKKQVTLTCMVTDFMPEDIYVEWTNNGKTELNYKNTEPVLDSDGSYFMYSKLRVEKKNWVERNSYSCSVVHEGLHNHHTTKSFSRTPGK | no binding (tested: 50 nM TNFα)
